Source: paper PMC7053999, “ParB spreading on DNA requires cytidine triphosphate in vitro” (eLife, 2020)
Changes are numbered by the printed parent chain. Names may count otherwise.

What was measured:
[1] = molecular target: T1, TetR (class B, from Tn10) (Escherichia coli, UniProt P04483); assay: BLI, release of TetR roadblock from tetO DNA; format: binding; conditions: 3 uM ahTc, 1 uM TetR, 1 uM ParB, 1 mM CTP, 170 bp closed parS-tetO DNA, Mg2+, 22 °C
T1 construct: C-terminal His6 (pET21b), E. coli Rosetta (DE3)

[2] = molecular target: T2, Xanthomonas campestris ParB (Xanthomonas campestris, UniProt Q8P466); assay: BLI, ParB accumulation on closed […] bp parS DNA; format: biochemical; conditions: 0.01 mM CTP, 1 uM ParB, Mg2+, pH 8.0, 22 °C
T2 construct: N-terminal His6-MBP (TEV) tag kept, E. coli Rosetta (DE3); chromosomal ParB
T2 sequence (Q8P466 1-309): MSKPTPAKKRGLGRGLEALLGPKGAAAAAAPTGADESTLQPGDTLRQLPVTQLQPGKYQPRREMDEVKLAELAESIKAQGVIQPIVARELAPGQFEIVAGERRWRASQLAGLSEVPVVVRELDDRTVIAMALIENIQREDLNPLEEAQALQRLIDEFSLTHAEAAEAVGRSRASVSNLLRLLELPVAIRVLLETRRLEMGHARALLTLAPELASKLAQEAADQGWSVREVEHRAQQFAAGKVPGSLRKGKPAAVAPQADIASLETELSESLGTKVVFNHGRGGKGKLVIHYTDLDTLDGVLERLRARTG

Caulobacter ParB [3] = molecular target: T3, Caulobacter ParB (Caulobacter vibrioides, UniProt B8GW30, C297S); assay: BLI, ParB accumulation on closed […] bp parS DNA; format: biochemical; conditions: 1 mM CTP, 1 uM ParB, Mg2+, pH 8.0, 22 °C; legend prints C97S in one place
T3 construct: full-length, C-terminal His6 (pET21b), E. coli Rosetta (DE3), dimer

Caulobacter ParB [4] = molecular target: T4, Caulobacter ParB (Caulobacter vibrioides, UniProt B8GW30, Q35C/C297S); assay: BMOE cross-linking of N-terminal domains, SDS-PAGE; format: binding; conditions: 1 mM CTP, 10 uM ParB, no parS DNA, Mg2+, pH 7.4, room temperature
T4 construct: full-length, C-terminal His6 (pET21b), E. coli Rosetta (DE3), dimer

Caulobacter ParB [5] = molecular target: T5, Caulobacter ParB (Caulobacter vibrioides, UniProt B8GW30); assay: DRaCALA membrane-spotting with radiolabelled CTP; format: binding; conditions: 22 bp parS DNA needed, Mg2+, pH 8.0, room temperature; labelled compound
T5 construct: full-length, C-terminal His6 (pET21b), E. coli Rosetta (DE3), dimer

Zymomonas mobilis ParB = molecular target: T6, Zymomonas mobilis ParB (Zymomonas mobilis, UniProt F8ETX3); assay: BLI, ParB accumulation on closed […] bp parS DNA; format: biochemical; conditions: 0.01 mM CTP, 1 uM ParB, Mg2+, pH 8.0, 22 °C
T6 construct: N-terminal His6-MBP (TEV) tag kept, E. coli Rosetta (DE3); chromosomal ParB
T6 sequence (F8ETX3 1-311): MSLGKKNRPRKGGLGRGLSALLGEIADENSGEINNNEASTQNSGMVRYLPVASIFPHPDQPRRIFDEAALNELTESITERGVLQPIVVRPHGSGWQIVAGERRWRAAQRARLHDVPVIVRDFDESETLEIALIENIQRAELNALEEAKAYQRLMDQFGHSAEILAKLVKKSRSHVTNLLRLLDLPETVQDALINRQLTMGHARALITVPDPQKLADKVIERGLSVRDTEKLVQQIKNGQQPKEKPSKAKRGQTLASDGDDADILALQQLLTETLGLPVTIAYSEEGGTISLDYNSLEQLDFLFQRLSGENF

[6] = molecular target: the molecule itself; assay: cross-linking; 10 µM ParB (Q35C C297S) ± 1 mM NTP (CTP, CTPγS or other NTPs) ± 0.5 µM 22 bp parS dsDNA in 10 mM Tris-HCl pH 7.4, 100 mM NaCl, 1 mM MgCl2, room temperature, 15 min or 1-30 min time course, then 1 mM BMOE; SDS-PAGE, InstantBlue stain
[7] = molecular target: T7, TetR-His6 (class B, from Tn10) (Tn10, UniProt P04483 1-207); assay: BLI; no NTP, Mg2+; BLI at 22 C: 100 mM Tris-HCl pH 8.0, 100 mM NaCl, 1 mM MgCl2, 0.005% Tween 20; 1 uM protein dimer. Pull-down: same buffer, room temperature, 5 min, 1 uM ParB, 1 mM NTP; conditions: protein: recombinant; tags: C-terminal His6; chain copies: 2; label: 5' biotin on strand 1; blunt
[8] = molecular target: T8, Caulobacter ParB-His6 (WT) (Caulobacter crescentus, UniProt B8GW30 1-304); assay: BLI; 0.125-2 uM ParB, no NTP; BLI at 22 C: 100 mM Tris-HCl pH 8.0, 100 mM NaCl, 1 mM MgCl2, 0.005% Tween 20; 1 uM protein dimer. Pull-down: same buffer, room temperature, 5 min, 1 uM ParB, 1 mM NTP; conditions: protein: recombinant; tags: C-terminal His6; chain copies: 2; label: 5' biotin on strand 1; blunt
T8 sequence: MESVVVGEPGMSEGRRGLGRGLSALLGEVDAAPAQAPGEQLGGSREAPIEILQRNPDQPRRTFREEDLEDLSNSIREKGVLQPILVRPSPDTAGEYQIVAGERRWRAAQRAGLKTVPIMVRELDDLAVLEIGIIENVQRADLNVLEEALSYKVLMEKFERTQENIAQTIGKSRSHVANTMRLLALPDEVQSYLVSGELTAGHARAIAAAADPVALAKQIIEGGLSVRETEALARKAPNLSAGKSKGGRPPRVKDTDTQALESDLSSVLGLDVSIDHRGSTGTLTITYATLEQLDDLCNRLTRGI

[9] = molecular target: T8, Caulobacter ParB-His6 (WT); assay: BLI; 1 mM CTP (enhanced); BLI at 22 C: 100 mM Tris-HCl pH 8.0, 100 mM NaCl, 1 mM MgCl2, 0.005% Tween 20; 1 uM protein dimer. Pull-down: same buffer, room temperature, 5 min, 1 uM ParB, 1 mM NTP; conditions: protein: recombinant; tags: C-terminal His6; chain copies: 2; label: biotin at both 5' ends; blunt; both ends tethered (closed); polymerase may add 3' A
[10] = molecular target: T8, Caulobacter ParB-His6 (WT); assay: BLI; 1 mM CTP, Mg2+; BLI at 22 C: 100 mM Tris-HCl pH 8.0, 100 mM NaCl, 1 mM MgCl2, 0.005% Tween 20; 1 uM protein dimer. Pull-down: same buffer, room temperature, 5 min, 1 uM ParB, 1 mM NTP; conditions: protein: recombinant; tags: C-terminal His6; chain copies: 2; label: biotin at both 5' ends; blunt; both ends tethered (closed); polymerase may add 3' A
[11] = molecular target: T8, Caulobacter ParB-His6 (WT); assay: BLI; ParB-CTP prebound; dissociation in 1 mM CTP, Mg2+; BLI at 22 C: 100 mM Tris-HCl pH 8.0, 100 mM NaCl, 1 mM MgCl2, 0.005% Tween 20; 1 uM protein dimer. Pull-down: same buffer, room temperature, 5 min, 1 uM ParB, 1 mM NTP; conditions: protein: recombinant; tags: C-terminal His6; chain copies: 2; label: biotin at both 5' ends; blunt; both ends tethered (closed); polymerase may add 3' A
[12] = molecular target: T8, Caulobacter ParB-His6 (WT); assay: BLI; 1 mM CTP, Mg2+ (no increase in response); BLI at 22 C: 100 mM Tris-HCl pH 8.0, 100 mM NaCl, 1 mM MgCl2, 0.005% Tween 20; 1 uM protein dimer. Pull-down: same buffer, room temperature, 5 min, 1 uM ParB, 1 mM NTP; conditions: protein: recombinant; tags: C-terminal His6; chain copies: 2; label: biotin at both 5' ends; blunt; both ends tethered (closed); polymerase may add 3' A
[13] = molecular target: T8, Caulobacter ParB-His6 (WT); assay: BLI; 1 mM CDP, Mg2+; BLI at 22 C: 100 mM Tris-HCl pH 8.0, 100 mM NaCl, 1 mM MgCl2, 0.005% Tween 20; 1 uM protein dimer. Pull-down: same buffer, room temperature, 5 min, 1 uM ParB, 1 mM NTP; conditions: protein: recombinant; tags: C-terminal His6; chain copies: 2; label: 5' biotin on strand 1; blunt
[14] = molecular target: T7, TetR-His6 (class B, from Tn10); assay: BLI; 0.125-2 uM TetR, no NTP; BLI at 22 C: 100 mM Tris-HCl pH 8.0, 100 mM NaCl, 1 mM MgCl2, 0.005% Tween 20; 1 uM protein dimer. Pull-down: same buffer, room temperature, 5 min, 1 uM ParB, 1 mM NTP; conditions: protein: recombinant; tags: C-terminal His6; chain copies: 2; label: 5' biotin on strand 1; blunt

T7 sequence (P04483 whole entry): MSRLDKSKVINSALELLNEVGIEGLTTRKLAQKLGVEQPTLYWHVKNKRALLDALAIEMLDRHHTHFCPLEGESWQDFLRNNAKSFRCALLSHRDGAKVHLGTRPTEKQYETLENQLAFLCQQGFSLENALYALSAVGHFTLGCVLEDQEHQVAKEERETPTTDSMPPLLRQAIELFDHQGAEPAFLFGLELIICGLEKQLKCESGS
T4 sequence (B8GW30 whole entry Q35C/C297S, the tested form may be a part): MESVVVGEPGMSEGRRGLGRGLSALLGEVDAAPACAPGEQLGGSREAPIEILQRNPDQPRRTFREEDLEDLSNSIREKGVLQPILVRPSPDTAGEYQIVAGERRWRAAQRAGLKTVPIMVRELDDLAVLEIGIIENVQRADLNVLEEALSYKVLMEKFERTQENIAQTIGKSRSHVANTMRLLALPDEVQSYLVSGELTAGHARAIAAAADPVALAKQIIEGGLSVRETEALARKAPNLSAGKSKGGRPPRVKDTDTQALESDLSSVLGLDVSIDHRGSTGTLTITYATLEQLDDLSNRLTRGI
T3 sequence (B8GW30 whole entry C297S): as the sequence (B8GW30 whole entry Q35C/C297S, the tested form may be a part) above, with C35Q counted along it
T1 sequence (P04483 whole entry): as the sequence (P04483 whole entry) above

Molecule: Cc1c2c(c(O)c3c(O)cccc13)C(=O)[C@]1(O)C(=O)C(C(N)=O)=C(O)[C@@H](N(C)C)[C@@H]1C2 [Anhydrotetracycline]
- BLI, release of TetR roadblock from tetO DNA [1]: addition of anhydrotetracycline (ahTc), a negative effector of TetR

Molecule: Nc1ccn([C@@H]2O[C@H](COP(=O)(O)OP(=O)(O)OP(=O)(O)O)[C@@H](O)[C@H]2O)c(=O)n1 [CTP]
- BLI, ParB accumulation on closed 169 bp parS DNA [2]: CTP facilitates the association of eight ParB orthologs with DNA
- BLI, ParB accumulation on closed 169 bp parS DNA (Caulobacter ParB [3]): Both ParB (C297S) and ParB (Q35C C297S) were competent at spreading
- BMOE cross-linking of N-terminal domains, SDS-PAGE (Caulobacter ParB [4]): cross-linking of ParB (Q35C C297S) was also enhanced by CTP and CTPγS
- DRaCALA membrane-spotting with radiolabelled CTP (Caulobacter ParB [5]): Caulobacter ParB binds to radiolabeled CTP in the presence of parS DNA
- BLI, ParB accumulation on closed 169 bp parS DNA (Zymomonas mobilis ParB): CTP facilitates the association of eight ParB orthologs with DNA

B1: Caulobacter ParB-His6 (Q35C C297S) (natural protein, Caulobacter crescentus, UniProt P0CAV8 1-304, looked up)
chain: T8 sequence with Q35C, C297S
notes: ParB, chromosome partitioning protein of Caulobacter crescentus; the cross-link reports engagement of the N-terminal domains of two subunits; The lone native cysteine C297 was changed to serine and Q35C was engineered in the N-terminal domain; Cloning in pET21b may add linker residues before the His6 tag (surmised); also called ParB (Q35C C297S); ParB (C297S Q35C); not shown: His6, C-terminal, …
- binding result [6]: binds

B2: 28 bp tetO (dsDNA)
DNA 1: GGGGACTCTATCATTGATAGAGTATGC
DNA 2: GCATACTCTATCAATGATAGAGTCCCC
- binding result [7]: binds
- binding result [8]: no binding

B3: 170 bp parS-tetO closed DNA (dsDNA)
DNA 1: CGCCAGGGTTTTCCCAGTCACGACGTTGTAAAACGACGGCCAGAATTCGCAACGTGTGTTTCACGTGAAACAGCCTTGAACTGATAACGACTCTATCATTGATAGAGTGTTCTCTCCACGGGATCCCCAGGCATGCAAGCTTGGCGTAATCATGGTCATAGCTGTTTCCT
DNA 2: AGGAAACAGCTATGACCATGATTACGCCAAGCTTGCATGCCTGGGGATCCCGTGGAGAGAACACTCTATCAATGATAGAGTCGTTATCAGTTCAAGGCTGTTTCACGTGAAACACACGTTGCGAATTCTGGCCGTCGTTTTACAACGTCGTGACTGGGAAAACCCTGGCG
- binding result [9]: binds

B4: 169 bp parS closed DNA (dsDNA)
DNA 1: CGCCAGGGTTTTCCCAGTCACGACGTTGTAAAACGACGGCCAGTGAATTCGAGCTCGGTACCCGCAGGAGGACGTAGGGTAGGGGGATGTTTCACGTGAAACAGGGGATCCTCTAGAGTCGACCTGCAGGCATGCAAGCTTGGCGTAATCATGGTCATAGCTGTTTCCT
DNA 2: AGGAAACAGCTATGACCATGATTACGCCAAGCTTGCATGCCTGCAGGTCGACTCTAGAGGATCCCCTGTTTCACGTGAAACATCCCCCTACCCTACGTCCTCCTGCGGGTACCGAGCTCGAATTCACTGGCCGTCGTTTTACAACGTCGTGACTGGGAAAACCCTGGCG
- binding signal [10]: ~12 fold BLI response vs no NTP
- binding signal [11]: ~5 fold slower dissociation vs buffer without CTP

B5: 169 bp scrambled parS closed DNA (dsDNA)
DNA 1: B4 DNA 1 with T88A, G89A, T92A, G96T, T97G, G98A, A99G, A100T, A101T, C102T
DNA 2: B4 DNA 2 with G68A, T69A, T70A, T71C, C72T, A73C, C74A, A78T, C81T, A82T
- binding result [12]: no binding

B6: 20 bp parS (dsDNA)
DNA 1: GGGATGTTTCACGTGAAACA
DNA 2: TGTTTCACGTGAAACATCCC
- binding result [13]: binds
- binding result [14]: no binding
